Data from the nanobody polyreactivity screen of Harvey et al. (2022).

Test: yeast display, Sf9 membrane polyspecificity reagent, FACS + sequencing; frameworks hold sequencing errors
Summary of the method: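 Galactose induction of a Saccharomyces cerevisiae BJ5465 synthetic nanobody display library ran 36–48 hours. The cells were then stained for 1 hour at 4 °C with 10% biotinylated, detergent-solubilized Sf9 membrane reagent, pulled down on streptavidin microbeads and FACS-sorted into low and high (top ~1%) gates on expression and reagent-binding fluorescence. Labels for polyreactivity follow the gate of origin.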

Row | Sequence | polyreactivity (PSR sort gate)
1 | QVQLVESGGGLVQAGGSLRLSCAASGRTFTINAMGWYRQAPGKERELVATIRSSGGSTSYADSVKGRFTISRDNAKNTVYLQMNSLKPEDTAVYYCAADGWGRYDYWGQGTQVTVSS | low polyreactivity
2 | QVQLVESGGGLVQAGGSLRLSCAASGRTFTKYAMGWYRQAPGKERELVAGITRRGGNTYYADSVKGRFTISRDNAKNTVYLQMNSLKPEDTAVYYCAATLFYTGSRFRYYYWGQGTQVTVSS | high polyreactivity
3 | QVQLVESGGGLVQAGGSLRLSCAASGRTFTNYAMRWYIPAPGKERELVAAAITVGGGRTYYADSVKGRFTISRENAKNTVYLQMNSLKPEDTAVYYCATDFGTYWYEYWGQGTQVTVSS | high polyreactivity
4 | QVQLVESGGGLVQAGGSLRLSCAASGRTFTPNAMGWYRQAPGKEREFVAAITYSGGSTRYADSVKGRFTISRDNAKNTVYLQMNSLKPEDTAVYYCAKGYFYYVYTEDDGYWGQGTQVTVSS | low polyreactivity
5 | QVQLVESGGGLVQAGGSLRLSCAASGRTFTPNGMGWYRQAPGKERELVAAITYGGGITDYADSVKGRFTTSRDNAKNTVYLQMNSLKPEDTAVYYCAATTLSFEGGKYWSKYDYWGQGTQVTVSS | low polyreactivity
6 | QVQLVESGGGLVQAGGSLRLSCAASGRTFTRNAMGWYRQAPGKERELVAAISAGGTRTYYADSVKGRFTISRDNAKNTVYLQMNSLIPEDTAVYYCAKPIAPAPNAYPAYDYWGQGTQVTVSS | high polyreactivity
7 | QVQLVESGGGLVQAGGSLRLSCAASGRTFTRYAMGWYRQAPGKEREFVAAITTRGGSTYYADSVKGRFTISRDNAKNTVYLQMNSLKPEDTAVYYCAADYYYVQVLYDLGLDYWGQGTQVTVSS | high polyreactivity
8 | QVQLVESGGGLVQAGGSLRLSCAASGRTFTRYAMGWYRQAPGKERELVAAISLSSGRTYYADSVKGRFTISRDNAKNTVYLQMNSLKPEDTAVYYCAVRSYVVPGKGFGYWGQGTQVTVSS | high polyreactivity
9 | QVQLVESGGGLVQAGGSLRLSCAASGRTFTRYTMGWYRQAPGKERELVAAISSGGSTTYADSVKGRFTISRDNAKNTVYLQMNSLKPEDTAVYYCAAGLVYRGYRRDYWGQGTQVTVSS | low polyreactivity
10 | QVQLVESGGGLVQAGGSLRLSCAASGRTFTRYTMGWYRQAPGKERELVAGITRSGGSTYYADSVKGRFTISRDNAKNTVYLQMNSLKPEDTAVYYCAARLSGRYDSQDNYWGQGTQVTVSS | high polyreactivity
11 | QVQLVESGGGLVQAGGSLRLSCAASGRTFTSNAMGWYRQAPGKEREFVAAITRSTGSTNYADSVKGRFTISRDNAKNTVYLQMNSLKPEDTAVYYCNAYLYYKGRYSRQYYYWGQGTQVTVSS | high polyreactivity
12 | QVQLVESGGGLVQAGGSLRLSCAASGRTFTSNAMGWYRQAPGKESELVAVITTSGDRTFYADSVKGRFTISRDNAKNTVYLQMNSLKPEDTAVYYCAADVRLTRGFDYWVQGTQVTVSS | high polyreactivity
13 | QVQLVESGGGLVQAGGSLRLSCAASGRTFTSYAMGSYRQAPGKERELVAVITRRGGSTSYADSVKGRFTISRDNAKNTVYLQMNSLKPEDTAVYYCAAKRTWPDVNYYYWGQGTQVTVSS | high polyreactivity
14 | QVQLVESGGGLVQAGGSLRLSCAASGRTFTSYAMGWYRQAPGKERELVATISTGGSTNYADSVKGRFTISRDNAKNTVYFQMNSLKPEDTAVYYCAAQVDGKRQYYRYDYWGQGTQVTVSS | low polyreactivity
15 | QVQLVESGGGLVQAGGSLRLSCAASGRTFTSYAMGWYRQAPGKERELVAVITWRGVSTYYADSVKGRFTISRDNAKNTVYLQMNSLKPEDTAVYYCAARRPGYYPYKGFDYWGQGTQVTVSS | high polyreactivity
16 | QVQLVESGGGLVQAGGSLRLSCAASGRTFTSYVMGWYIQAPGKERELVAAITRGGRSYYADSVKGRFTISRDNAKKTVYLQMNSLTPEDTAVYYCGARYSVSYNYWGQGTQVTVSS | high polyreactivity
17 | QVQLVESGGGLVQAGGSLRLSCAASGRTFTTNAMGWYRQAPGKERELVAAISRRGGSTYYADSVKGRFTISRDNAKNTVYLQMNSLKPEDTAVYYCYAHLWIRGYDYWGQGTQVTVSS | high polyreactivity
18 | QVQLVESGGGLVQAGGSLRLSCAASGRTFTTNAMGWYRQAPGKERELVAAITIGDDTYYADSVKGRFTISRDNAKNTVYLQMNSLKPEDTAVYYCNVDGRSDGDDYWGQGTQVTVSS | low polyreactivity
19 | QVQLVESGGGLVQAGGSLRLSCAASGRTFTTYAMGWSRQAPGKERELVAAISSGGSTHYADSVKGRFTISRDNAKYTVYLQMNSLKPEDTAVYYCAADKYYYRTSGQEMDYWGQGTQVTVSS | high polyreactivity
20 | QVQLVESGGGLVQAGGSLRLSCAASGRTFTTYTMGWYRQAPGKERELVASINYRGGRTYYADSVKGRFTISRDNAKNTVYLQMNSLKPEDTAVYYCAKRRYYRRRQYYHYDYWGQGTQVTVSS | high polyreactivity
21 | QVQLVESGGGLVQAGGSLRLSCAASGRTFTVYAMGWYRLAPGKERELVAAISSGGITNYADSVKGRFTISRDNAKNTVYLQMNSLKPEDTAVYYCNTKSGKARYEFGYWGQGTQVTLSS | low polyreactivity
22 | QVQLVESGGGLVQAGGSLRLSCAASGRTFTVYAMGWYRQAPGKEREFVAAITERGGSTYYADSVKGRFTISRDNAKNTVYLQMNSLKPEDTAVYYCAAVYYWRPGWYVRFDYWGQGTQVTVSS | low polyreactivity

Row | Sequence | polyreactivity (PSR sort gate)
23 | QVQLVESGGGLVQAGGSLRLSCAASGRTFTVYAMGWYRQAPGKERELVAAISSGGITYYADSVKGRFTISRDNAKNTVYLQMNSLKPEDTAVYYCNTKSGKARYEFGYWGQGTQVTVSS | low polyreactivity
24 | QVQLVESGGGLVQAGGSLRLSCAASGRTFTWNVMGWYRQAPGKERELVAAITTDDRTYADSVKGRFTISRDNAKNTVYLQMNILKPEDTAVYYCATVVAWSSRPVGEDYWGQGTQVTVSS | low polyreactivity
25 | QVQLVESGGGLVQAGGSLRLSCAASGRTFTWYAMGWYRQAPGKEREFVAAISFSGGSTYYADSVKGRFTISRDYAKNTVFLQMNSLKPEDTAVYYCARPSGDAWEGPRMDYWGQGTQVTVSS | low polyreactivity
26 | QVQLVESGGGLVQAGGSLRLSCAASGRTFTWYAMGWYRQAPGKERELVAAISFSGGSTYYADSVKGRFTISRDNAKNTVYLQMNSLKPEDTAVYYCARPSGDAWEGPRMDYWGQGTQVTVSS | low polyreactivity
27 | QVQLVESGGGLVQAGGSLRLSCAASGRTFTYNTMGWYRQAPGKERELVAAISSRGGRTYYADSVKGRFTISRDNAKNTVYLQMHSLKAEDTAVYYCAVYGYYSLSHWDYDYWAQGTQVTVSS | high polyreactivity
28 | QVQLVESGGGLVQAGGSLRLSCAASGRTFTYNVMGWYRQAPGKERELVAAITSGGSTYYADSVKGRFTISRDNAKNTVYLQMNSLKPEDTAVYYGAARGYSYKWDNRYDYWGQGTQVTVSS | high polyreactivity
29 | QVQLVESGGGLVQAGGSLRLSCAASGRTFTYYAMGWSRQAPGKERELVAGISSGGGSTYYADSVKGRFTISRDNAKNSVYFQMNILNPEDTAVYYCATAKRQGCYSEYDYWGQGTQVTVSS | high polyreactivity
30 | QVQLVESGGGLVQAGGSLRLSCAASGRTFTYYAMGWYRPAPGKERELVARITTDGSSTYYADSVKGRFTISRDNAKNTVYLQMNSLKPEDTAVYYCAADFQYAIHTDMDYWGQGTQVTVSS | high polyreactivity
31 | QVQLVESGGGLVQAGGSLRLSCAASGRTFTYYAMGWYRQAPGKEREFVASISLSGGRTYYADSVKGRFTISRDNAKNTVYLQMNSLKPEDTAVYYCNAYYPRVHRSDYWGQGTQVTVSS | low polyreactivity
32 | QVQLVESGGGLVQAGGSLRLSCAASGRTFTYYGMGWYRQAPGKERELVAAISGGGDTNYADSVKGRFTISRDNAKNTVYLQMNSLKPEDTAGYYCAAKRRYYWDYWFYEYDYWGQGTQVTVSS | low polyreactivity
33 | QVQLVESGGGLVQAGGSLRLSCAASGRTFVANAMGWYRQAPGKERELVAAISSSGGSTYYADSVKGRFTISRDNAKNTVYLQMNSLKPEDTAVYYCNRVGVYYRLYPYYYWGQGTQVTVSS | high polyreactivity
34 | QVQLVESGGGLVQAGGSLRLSCAASGRTFVANDMAWYTHAPGKERELFAAISYSGGSTYYADSVKGRFTISRDNAKNTVYLQMNSLKPEDTEVYYCNAYYYGGVRKQHGYWGQVTQVTVSS | low polyreactivity
35 | QVQLVESGGGLVQAGGSLRLSCAASGRTFVDYDMGWYRQAPGKERELVADINSGGSTYYADSVKGRFTISRDNAKNTVYLQMNSLKPEDTAVYYCAARPYYWGQGTQVTVSS | high polyreactivity
36 | QVQLVESGGGLVQAGGSLRLSCAASGRTFVGNAMGWYRQAPGKERELVAAISGRGGSTKYADSVKGRFTISRDYAKNTVYLQMNSLKPEYTAVYYCNAPRNYYKNRAYEYWGQGTKVTVSS | high polyreactivity
37 | QVQLVESGGGLVQAGGSLRLSCAASGRTFVGYAMGWYRQAPGKERELVAAISRTGGSTYYADSVKGRFTISRDNAKNTVYLQMNSLKPEDTAVYYCAASPKRVLRESGDYWGQGTQVTVSS | high polyreactivity
38 | QVQLVESGGGLVQAGGSLRLSCAASGRTFVGYTMGWYRQAPGKERELVAAIDLSDGSTSYADSVKGRFTISRDNAKNTVYFQMNSLKPEDTAVYYCAKTWANVYAGAHDYWGQGTQVTVSS | low polyreactivity
39 | QVQLVESGGGLVQAGGSLRLSCAASGRTFVGYTMGWYRQAPGKERELVAAIDLSDGSTSYADSVKGRFTISRDNAKNTVYLQMNSLIPEDTAVYYCAKTWANVYAGAHDYWGLGTQVTVSS | low polyreactivity
40 | QVQLVESGGGLVQAGGSLRLSCAASGRTFVHYTMGWYRQAPGKERELVATISTSGGSTSYADSVKGRFTISRDNAKNTVYLQMNSLIPEDTAVYYCAARWYFPDRVKYDYWGQGTQVTVSS | low polyreactivity
41 | QVQLVESGGGLVQAGGSLRLSCAASGRTFVIYAMGWYRQAPGKEREFVAAISRSGGSTYYADSVKGRFTISRDNAKNTVYLQMNSLKPEDTAVYYCNTRTPYWVKSDYWGQGTQVTVSS | low polyreactivity
42 | QVQLVESGGGLVQAGGSLRLSCAASGRTFVIYAMGWYRQAPGKEREFVPAISKGGGSTYYADSVKGRFTISRDNAKNTVYLQMNSLKPEDTAVYYCAAGYGTYYQSSRFDYWGQGTQVTVSS | high polyreactivity
43 | QVQLVESGGGLVQAGGSLRLSCAASGRTFVLNAMGWYRQAPGKERELVAAITLGGGSTYADSVKGRLTISRDNAKNTVYLQMNSLKPEDTEVYYCNKASGVFYGHLDYWGQGTQVTVSS | low polyreactivity
